# Measurements published in patent publication US20190330277A1 (PIRBRIGHT INSTITUTE, published 2019).
# B1: D25 antibody (antibody, V domains shown)
# VH: QVQLVQSGAEVKKPGSSVMVSCQASGGPLRNYIINWLRQAPGQGPEWMGGIIPVLGTVHYAPKFQGRVTITADESTDTAYIHLISLRSEDTAMYYCATETALVVSTTYLPHYFDNWGQGTLVTVSS
# VL: DIQMTQSPSSLSAAVGDRVTITCQASQDIVNYLNWYQQKPGKAPKLLIYVASNLETGVPSRFSGSGSGTDFSLTISSLQPEDVATYYCQQYDNLPLTFGGGTKVEIK
# notes: also called mAb D25
# B2: MPE8 antibody (antibody, V domains shown)
# VH: EVQLVESGGGLVKPGGSLRLSCAASGFTFSSYSMNWVRQAPGKGLEWVSSISASSSYSDYADSAKGRFTISRDNAKTSLFLQMNSLRAEDTAIYFCARARATGYSSITPYFDIWGQGTLVTVSS
# VL: QSVVTQTPSVSGAPGQRVTISCTGSSSNIGAGYDVHWYQQLPGTAPKLLIYDNNNRPSGVPDRFSASKSGTSASLAITGLQAEDEADYYCQSYDRNLSGVFGTGTKVTVL
# notes: also called mAb MPE8
# Experiments:
# [1] = target: T1, sc9-10_DS-CAV1_bRSV(RB94)_Fd_hp1_fp2_ig1; test: ELISA, variant from culture supernatant on Ni-NTA plate;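 note: antigenic evaluation by ELISA of constructs expressed at small scale in 96-well plates after transient plasmid transfection of cells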
# T1 construct: also called sc-v13
# Experimental: (§1) Initial assessment of all constructs were performed using a 96-well microplate format for high throughput expression followed by an ELISA-based antigenic evaluation as described previously 17. […] Plasmid DNA and TrueFect-Max (United BioSystems, MD) were mixed and added to the growing cells, and the 96-well plate incubated at 37° C., 5% CO2. One day post transfection, enriched medium (high glucose DMEM plus 25% ultra-low IgG fetal bovine serum, 2× nonessential amino acids, 1× glutamine) was added to each well, and the 96-well plate was returned to the incubator for continuous culture.
# [2] = target: T2, RB94 hu/bov DS-CAV1 A149C-Y458C Long; test: as above
# T2 construct: also called DS2-v7
# Experimental: as §1
# [3] = target: T3, RB94 sc9 DS-CAV1 N183GC-N428C L373R Long S190V; test: as above
# T3 construct: also called DS2-v13
# Experimental: as §1
# [4] = target: T4, 391-2-DS-Cav1-sc9deleteFS 99C-361C; test: as above
# T4 construct: also called DS2-v15
# Experimental: as §1
# [5] = target: T5, RB94 dscav1T369C-T455C Long S190V; test: as above
# T5 construct: also called DS2-v18
# Experimental: as §1
# [6] = target: T6, RB94 sc9 DS-CAV1 A149C-Y458C L373R; test: as above
# T6 construct: also called DS2-v20
# Experimental: as §1
# [7] = target: T7, RB94 sc9 DS-CAV1 A149C-Y458C L373R Long; test: as above
# T7 construct: also called DS2-v22
# Experimental: as §1
# [8] = target: T8, 391-2-DS-Cav1_ sc9_S398C-S485C; test: as above
# T8 construct: also called DS2-v23
# Experimental: as §1
# [9] = target: T9, 391-2-DS-Cav1_ sc9_S485C-A490C; test: as above
# T9 construct: also called DS2-v28
# Experimental: as §1
# [10] = target: T10, RB94 sc9 DS-CAV1 A149C-Y458C L373R Long S190V; test: as above
# T10 construct: also called DS2-v30
# Experimental: as §1
# [11] = target: T11, RB94 DS-CAV1 T369C-T455C Long; test: as above
# T11 construct: also called DS2-v32
# Experimental: as §1
# [12] = target: T12, RB94_sc9-10 DS-CAV1 L373R; test: ELISA, variant from culture supernatant on Ni-NTA plate [continued]
# T12 construct: also called sc-v38
# Experimental: as §1
# [13] = target: T13, 391-2_DS-Cav1-tzsc4; test: as above
# T13 construct: also called sc-v39
# Experimental: as §1
# [14] = target: T14, 391-2-DS-Cav1-IP-2; test: as above
# T14 construct: also called sc-v40
# Experimental: as §1
# [15] = target: T15, RB94 DS-CAV1 N70K S104F K117T; test: as above
# T15 construct: also called sc-v41
# Experimental: as §1
# [16] = target: T16, sc9-10_DS-CAV1_bRSV(RB94)_Fd_(hRSV-leader)_ig1; test: as above
# T16 construct: also called sc-v43
# Experimental: as §1
# [17] = target: T17, sc9-10_DS-CAV1_bRSV(RB94)_Fd_fp1_ig1; test: as above
# T17 construct: also called sc-v44
# Experimental: as §1
# [18] = target: T18, 391-2-DS-Cav1-BZGJ9_gyc3; test: as above
# T18 construct: also called sc-v45
# Experimental: as §1
# [19] = target: T19, 391-2-DS-Cav1-IP-7; test: as above
# T19 construct: also called sc-v46
# Experimental: as §1
# [20] = target: T20, 391-2-DS-Cav1-BZGJ9; test: as above
# T20 construct: also called sc-v47
# Experimental: as §1
# [21] = target: T21, 391-2-DS-Cav1-BZGJ9_gyc2; test: as above
# T21 construct: also called sc-v48
# Experimental: as §1
# [22] = target: T22, 391-2-DS-Cav1-SC-IP-1; test: as above
# T22 construct: also called sc-v49
# Experimental: as §1
# [23] = target: T23, KXds2; test: as above
# T23 construct: also called sc-v50
# Experimental: as §1
# [24] = target: T24, 391-2_DS-Cav1-tzsc4; test: as above
# T24 construct: also called sc-v51
# Experimental: as §1
# [25] = target: T25, 391-2_DS-Cav1-tzsc9; test: as above
# T25 construct: also called sc-v52
# Experimental: as §1
# [26] = target: T26, 391-2-DS-Cav1-BZGJ9_gyc4; test: as above
# T26 construct: also called sc-v53
# Experimental: as §1
# [27] = target: T27, 391-2-DS-Cav1- F-SC_11R; test: as above
# T27 construct: also called sc-v54
# Experimental: as §1
# [28] = target: T28, 391-2-DS-Cav1-BZGJ9_gyc6; test: as above
# T28 construct: also called sc-v55
# Experimental: as §1
# [29] = target: T29, KXsb2; test: as above
# T29 construct: also called sc-v56
# Experimental: as §1
# [30] = target: T30, 391-2_DS-Cav1-tzsc2; test: as above
# T30 construct: also called sc-v57
# Experimental: as §1
# [31] = target: T31, 391-2_DS-Cav1-tzsc6; test: as above
# T31 construct: also called sc-v58
# Experimental: as §1
# [32] = target: T32, 391-2-DS-Cav1-BZGJ9_gyc10; test: as above
# T32 construct: also called sc-v60
# Experimental: as §1
Binder,ELISA binding value [1],ELISA binding value [2],ELISA binding value [3],ELISA binding value [4],ELISA binding value [5],ELISA binding value [6],ELISA binding value [7],ELISA binding value [8],ELISA binding value [9],ELISA binding value [10],ELISA binding value [11],ELISA binding value [12],ELISA binding value [13],ELISA binding value [14],ELISA binding value [15],ELISA binding value [16],ELISA binding value [17],ELISA binding value [18],ELISA binding value [19],ELISA binding value [20],also measured
B1,1.88,0.274,0.206,0.198,0.182,0.175,0.158,0.144,0.136,0.133,0.129,0.27,0.219,0.197,0.17,0.197,0.191,0.164,0.201,0.183,ELISA binding value [21]: 0.144; ELISA binding value [22]: 0.0985; ELISA binding value [23]: 0.109; ELISA binding value [24]: 0.138; ELISA binding value [25]: 0.132; ELISA binding value [26]: 0.138; ELISA binding value [27]: 0.161; ELISA binding value [28]: 0.135; ELISA binding value [29]: 0.132; ELISA binding value [30]: 0.0883; ELISA binding value [31]: 0.138; ELISA binding value [32]: 0.136
B2,1.81,0.29,0.155,0.229,0.371,0.154,0.0692,0.0849,0.0579,0.0477,0.0667,0.258,0.263,0.217,0.201,0.105,0.0965,0.123,0.0761,0.0926,ELISA binding value [21]: 0.12; ELISA binding value [22]: 0.155; ELISA binding value [23]: 0.143; ELISA binding value [24]: 0.096; ELISA binding value [25]: 0.1; ELISA binding value [26]: 0.0901; ELISA binding value [27]: 0.0668; ELISA binding value [28]: 0.0866; ELISA binding value [29]: 0.0752; ELISA binding value [30]: 0.109; ELISA binding value [31]: 0.0583; ELISA binding value [32]: 0.0498
